Reference: the supplement of paper PMC10567573

B1: SMOC2 (parent)
chain: QKPLCASDGRTFLSRCEFQRAKCK
B2: FOXJ1 (parent)
chain: SAIYKWITDNFCYFRHADPTWQNS

Variants of: B1
Experiment: protein stability index of a GFP-peptide fusion (GPS, HEK-293T) (PSI 1-6); higher = more stable
Conditions: c terminus: a fixed tail appended
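Note: lentivirally expressed fusions sorted by FACS into six bins by GFP to DsRed ratio, PSI derived from sequencing read proportions per bin multiplied by bin number.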

Variant	protein stability index
C16M	3.43
C16Y	3.06
C16W	2.89
C16H	4.04
C16D	4.62
C16R	4.44
L13G	3.31
L13C	3.51
L13W	3.46
L13A	1.9
A6H	3.61
A6R	2.74
A6L	2.47
A6G	2.38
A6S	3.44
A6D	2.9
R15M	2.92
R15C	3.06
R15E	4.14
K22F	2.65
K22R	2.95
K22H	2.31

Variant	protein stability index
K22N	3.07
A21S	3.14
T11Q	3.74
T11I	2.71
T11L	2.68
T11H	2.38
T11V	2.33
T11E	3.89
T11C	2.05
T11D	3.33
C23E	3.32
D8F	1.94
D8H	2.52
D8L	1.97
D8A	2.37
F12D	4.57
F12W	2.34
G9Q	2.64
G9M	3.19
G9C	2.35
G9N	2.82
G9R	2.94

Variant	protein stability index
R20D	4.16
R20F	2.29
R20M	3.57
R20H	2.77
E17V	2.82
E17D	2.11
E17R	3.5
E17C	2.74
E17Y	3.05
C5S	2.91
C5K	2.19
L4D	3.83
L4P	2.79
L4E	3.77
L4W	2.51
L4T	2.65
R10F	2.95
R10S	3.84
R10N	1.99
R10H	2.71
R10W	2.58
R10P	3.11

Variant	protein stability index
R10M	2.72
K2G	3.16
K2M	3.87
K2C	2.03
K2R	3.47
K2S	2.93
K2A	2.61
P3N	2.2
P3T	2.81
P3R	3.19
S14T	3.4
S14C	2.82
S14G	3.44
S14Y	2.71
S14K	2.93
S14H	3.73
F18I	4.24
F18N	4.19
F18V	4.01
F18M	3.67
F18R	4.37
Q1Y	2.97

Variant	protein stability index
Q1F	3.05
Q1A	2.81
Q1P	2.64
Q1K	3.41
Q19N	3.34
Q19S	4.18
Q19T	3.36
Q19E	3.48
Q19V	2.71
Q19A	2.98
Q19L	2
S7T	2.5
S7Y	2.15
S7N	3.76
S7E	2.86
S7C	1.82
S7H	2.57
K24A	3
K24H	2.76
K24R	1.74
K24M	2.62
K24I	2.23

Variants of: B2
Experiment: as above
Conditions: c terminus: a fixed tail appended

Variant	protein stability index
N23M	2.75
N23F	3.19
N23S	2.62
N23R	3.24
N23P	3.02
N23H	4.01
N23L	2.46
N23T	3.31
N23Q	3.42
N23C	2.97
N23Y	3.52
I3A	2.42
I3H	1.98
I3M	3.21
I3Q	2.1
I3D	2.83
I3W	2.41
I3T	1.7
I3E	1.67
I3Y	3.11
I3S	1.21
I3K	1.84
I3V	3.81
H16A	2.55
H16Q	3.32

Variant	protein stability index
H16P	3.62
H16R	5.03
H16D	2.33
H16G	2.72
H16Y	2.27
H16T	2.32
H16K	1.7
W21H	2.11
W21C	2.94
W21E	3.54
W21N	3.38
W21M	3.42
W21K	3.58
W21F	1.85
W21V	3.94
W21D	2.94
W21P	1.99
W21A	3.28
W21I	3.5
F14W	2.73
F14G	2.33
F14A	2.32
F14M	2.21
F14N	2.14
F14K	2.58

Variant	protein stability index
F14P	2.04
F14R	1.75
F14H	2.56
F14V	3.33
A17H	3.05
A17M	4.41
A17Q	2.7
A17Y	2.86
A17C	3.02
A17T	2.16
F11Y	3.4
F11T	2.83
F11C	2.68
F11P	1.79
F11G	1.96
F11N	2.05
F11Q	2.21
F11L	3.24
T8A	3.42
T8N	3.01
T8D	3.49
T8H	3.34
T8R	2.51
T8M	3.27
T8E	2.79

Variant	protein stability index
T8F	3.33
T8Q	2.78
T8V	2.13
T8S	4.33
T8C	2.73
S1M	3.02
S1C	3.86
S1D	3.17
S1V	2.43
S1H	2.92
S1G	3.32
S1K	3.58
S1E	3.4
S1F	3.6
S1I	4.71
A2E	1.44
A2W	2.53
A2K	2.72
A2I	3.56
A2F	4.1
A2G	2.87
A2H	3.1
A2R	2.52
A2V	2.4
A2N	2.25

Variant	protein stability index
I7D	2.27
I7W	3.71
I7N	1.93
I7C	1.84
I7F	2.87
I7R	1.79
I7Y	1.86
I7G	2.4
I7K	1.74
K5D	3.42
K5V	3.36
K5L	2.73
K5R	3.05
K5Y	3.64
K5Q	2.99
K5N	3.19
K5G	3.71
K5E	1.81
D9A	2.74
D9S	3.04
D9Q	2.67
D9L	2.65
D9I	4
D9H	4.47
D9T	3.43

Variant	protein stability index
P19R	3.65
P19G	2.04
P19A	3.17
P19T	4.32
P19F	4.12
P19W	2.35
P19L	1.54
P19N	2.77
P19D	1.69
Y13Q	1.57
Y13G	3.62
Y13K	1.86
Y13V	3
Y13P	2.18
Y13H	3.23
Y13M	2.87
Y13D	1.8
Y13W	3.59
Y13R	1.8
Y4L	2.95
Y4W	2.97
Y4F	2.59
Y4E	2.99
Y4A	1.47
Y4S	2.68

Variant	protein stability index
C12S	2.78
C12E	1.95
C12R	1.81
C12F	2.67
C12L	3.4
C12V	2.69
C12W	3.99
C12N	1.6
C12I	2.77
C12P	1.97
C12H	3.13
C12A	2.57
C12Y	3.81
N10L	3.56
N10R	2.2
N10I	2.79
N10Y	3.33
N10Q	2.11
N10E	2.62
N10V	1.74
N10M	2.89
N10C	2.08
N10P	2.13
N10H	2.3
N10T	2.05

Variant	protein stability index
S24R	2.43
S24E	2.97
S24K	2.17
S24N	3.76
S24H	2.34
S24P	3.85
S24D	4.48
S24T	2.96
S24F	3.32
R15E	4.29
R15M	2.66
R15A	1.81
R15F	2.57
R15S	2.76
R15D	2.25
R15P	2.53
R15H	5.96
R15G	3.31
R15L	2.95
D18W	2.55
D18M	3.77
D18Q	2.86
D18R	2.77
D18A	3.1
D18I	2.82

Variant	protein stability index
D18F	1.9
D18Y	2.95
T20C	3
T20S	3.35
T20A	2.54
T20W	4.37
T20D	2.67
W6G	1.67
W6S	1.71
W6T	1.43
W6C	2.1
W6V	1.49
W6I	3.22
W6M	3.3
W6K	1.22
W6E	2.27
W6A	1.66
W6R	1.86
Q22C	3.38
Q22W	1.86
Q22H	3.75
Q22P	3.76
Q22N	4.82
Q22E	2.19
